Changes are numbered by the printed parent chain. Names may count otherwise.

The chains are these.
B1: H240-Kn061/H240-Hl134/L73-k0 (antibody, human IgG1, kappa)
heavy 1: QDQLVQSGAEVKKPGASVKVSCKASGFNIKDTYIQWVRQAPGQGLEWMGRIDPLRKQTKYREKFEGRVTITADTSTNTAYMELSSLRSEDTAVYYCVRSGREFDYWGQGTLVTVSSASTKGPSVFPLAPSSKSTSGGTAALGCLVKDYFPEPVTVSWNSGALTSGVHTFPAVLQSSGLYSLSSVVTVPSSSLGTQTYICNVNHKPSNTKVDKKVEPKSCDKTHTCPPCPAPEYYWGPSVFLFPPKPKDTLMISRTPEVTCVVVDVSDEDPEVKFNWYVDGVEVHNAKTKPREEQYNATYRVVSVLTVLHQDWLNGKEYKCKVSNKALPAPIEKTISKAKGQPREPQVCTLPPSRDELTKNQVSLWCLVKGFYPSDIAVEWESNGQPENNYKTTPPVLDSDGSFFLYSKLTVDKSRWQQGNVFSCSVMHEALHNHYTQKSLSLSP
heavy 2: B1 heavy 1 with C348Y, D355C, W365S, L367A, Y406V
light: DIQMTQSPSSLSASVGDRVTITCRASQDIHKYIAWYQQKPGQAPRLLIQYTSTLQPGVPSRFSGSGSGTDYTFTISSLQPEDIATYYCLQYEQLRTFGGGTKVEIKRTVAAPSVFIFPPSDEQLKSGTASVVCLLNNFYPREAKVQWKVDNALQSGNSQESVTEQDSKDSTYSLSSTLTLSKADYEKHKVYACEVTHQGLSSPVTKSFNRGEC
notes: anti-epiregulin IgG1 called homodimerized: L234Y/L235Y/G236W/H268D/S298A in both H chains; also called H240-Kn061/H240-HI134/L73-k0
B2: H240-Kn132/H240-Hl071/L73-k0 (antibody, human IgG1, kappa)
heavy 1: B1 heavy 1 with Y233L, Y234L, W235G, D267H, A297S, K325D, A329M, K333E
heavy 2: QDQLVQSGAEVKKPGASVKVSCKASGFNIKDTYIQWVRQAPGQGLEWMGRIDPLRKQTKYREKFEGRVTITADTSTNTAYMELSSLRSEDTAVYYCVRSGREFDYWGQGTLVTVSSASTKGPSVFPLAPSSKSTSGGTAALGCLVKDYFPEPVTVSWNSGALTSGVHTFPAVLQSSGLYSLSSVVTVPSSSLGTQTYICNVNHKPSNTKVDKKVEPKSCDKTHTCPPCPAPELLGGPSVFLFPPKPKDTLMISRTPEVTCVVVDVSHEDPEVKFNWYVDGVEVHNAKTKPREEQYNSTYRVVSVLTVLHQDWLNGKEYKCKVSNDALPMPIEETISKAKGQPREPQVYTLPPSRCELTKNQVSLSCAVKGFYPSDIAVEWESNGQPENNYKTTPPVLDSDGSFFLVSKLTVDKSRWQQGNVFSCSVMHEALHNHYTQKSLSLSP
light: B1 light
notes: anti-epiregulin IgG1 called homodimerized: K326D/A330M/K334E in both H chains; also called H240-Kn132/H240-HI071/L73-k0
B3: GpH7-A5/GpH7-B78/GpL16-k0 (antibody, human IgG1, kappa)
heavy 1: not shown
heavy 2: QVQLVQSGAEVKKPGASVTVSCKASGYTFTDYEMHWIRQPPGEGLEWIGAIDPKTGDTAYSESFQDRVTLTADKSTSTAYMELSSLTSEDTAVYYCTRFYSYTYWGQGTLVTVSSASTKGPSVFPLAPSSKSTSGGTAALGCLVKDYFPEPVTVSWNSGALTSGVHTFPAVLQSSGLYSLSSVVTVPSSSLGTQTYICNVNHKPSNTKVDKKVEPKSCDKTHTCPPCPAPELLGGPDVFLFPPKPKDTLMISRTPEVTCVVVDVSHEDPEVKFNWYVDGVEVHNAKTKPREEQYNSTYRVVSVLTVLHQDWLNGKEYKCKVSNKALPLPEEKTISKAKGQPREPQVYTLPPSRDELTKNQVSLTCLVKGFYPSDIAVEWESNGQPENNYKTTPPVLDSDGSFFLYSKLTVDKSRWQQGNVFSCSVMHEALHNHYTQESLSLSP
light: DIVMTQSPLSLPVTPGEPASISCQASESLVHSNRNTYLHWYLQKPGQSPQLLIYKVSNRFSGVPDRFSGSGSGTDFTLKISRVEAEDVGVYYCSQNTHVPPTFGQGTKVEIERTVAAPSVFIFPPSDEQLKSGTASVVCLLNNFYPREAKVQWKVDNALQSGNSQESVTEQDSKDSTYSLSSTLTLSKADYEKHKVYACEVTHQGLSSPVTKSFNRGEC
notes: heterodimerized anti-glypican 3 IgG1; S239D/A330L/I332E in one H chain
B4: GpH7-A5/GpH7-B3/GpL16-k0 (antibody, human IgG1, kappa)
heavy 1: not shown
heavy 2: not shown
light: B3 light
notes: also called HeCon Ab
B5: GpH7-A57/GpH7-B78/GpL16-k0 (antibody, human IgG1, kappa)
heavy 1: B3 heavy 2 with D354K, H433R, E437K
heavy 2: B3 heavy 2
light: B3 light
notes: anti-glypican 3 IgG1 called homodimerized: S239D/A330L/I332E in both H chains
B6: GpH7-TA7/GpH7-B78/GpL16-k0 (antibody, human IgG1, kappa)
heavy 1: B3 heavy 2 with L232Y, G234W, D237S, S296A, L328A, E330I, D354K, H433R, E437K
heavy 2: B3 heavy 2
light: B3 light
notes: heterodimerized anti-glypican 3 IgG1; L234Y/G236W/S298A in one H chain, S239D/A330L/I332E in the other
B7: GpH7-TA7/GpH7-TA45/GpL16-k0 (antibody, human IgG1, kappa)
heavy 1: B3 heavy 2 with L232Y, G234W, D237S, S296A, L328A, E330I, D354K, H433R, E437K
heavy 2: B3 heavy 2 with L232Y, G234W, D237S, S296A, L328A, E330I
light: B3 light
notes: anti-glypican 3 IgG1 called homodimerized: L234Y/G236W/S298A in both H chains
B8: GpH7-TA7/GpH7-B3/GpL16-k0 (antibody, human IgG1, kappa)
heavy 1: B3 heavy 2 with L232Y, G234W, D237S, S296A, L328A, E330I, D354K, H433R, E437K
heavy 2: not shown
light: B3 light
notes: heterodimerized anti-glypican 3 IgG1; L234Y/G236W/S298A in one H chain
B9: H240-Kn125-CD/H240-Hl076/L73 (antibody, human IgG1, kappa)
heavy 1: B2 heavy 2 with D269E
heavy 2: QDQLVQSGAEVKKPGASVKVSCKASGFNIKDTYIQWVRQAPGQGLEWMGRIDPLRKQTKYREKFEGRVTITADTSTNTAYMELSSLRSEDTAVYYCVRSGREFDYWGQGTLVTVSSASTKGPSVFPLAPSSKSTSGGTAALGCLVKDYFPEPVTVSWNSGALTSGVHTFPAVLQSSGLYSLSSVVTVPSSSLGTQTYICNVNHKPSNTKVDKKVEPKSCDKTHTCPPCPAPEYQWGPMVFLFPPKPKDTLMISRTPEVTCVVVDVSDEEPEVKFNWYVDGVEVHNAKTKPREEQYNATYRVVSVLTVLHQDWLNGKEYKCKVSNKALPAPIEKTISKAKGQPREPQVCTLPPSRDELTKNQVSLWCLVKGFYPSDIAVEWESGCRGDCLPENNYKTTPPVLDSDGSFFLYSKLTVDKSRWQQGNVFSCSVMHEALHNHYTQKSLSLSP
light: B1 light
notes: heterodimerized anti-EREG antibody with the RGD peptide inserted in a CH3 region (control); also called H240-Kn125-CD/H240-HI076/L73
B10: H240-Kn125/H240-Hl076-ma1/L73 (antibody, human IgG1, kappa)
heavy 1: QDQLVQSGAEVKKPGASVKVSCKASGFNIKDTYIQWVRQAPGQGLEWMGRIDPLRKQTKYREKFEGRVTITADTSTNTAYMELSSLRSEDTAVYYCVRSGREFDYWGQGTLVTVSSASTKGPSVFPLAPSSKSTSGGTAALGCLVKDYFPEPVTVSWNSGALTSGVHTFPAVLQSSGLYSLSSVVTVPSSSLGTQTYICNVNHKPSNTKVDKKVEPKSCDKTHTCPPCPAPELLGGPSVFLFPPKPKDTLMISRTPEVTCVVVDVSGCRGDCLEPEVKFNWYVDGVEVHNAKTKPREEQYNSTYRVVSVLTVLHQDWLNGKEYKCKVSNDALPMPIEETISKAKGQPREPQVYTLPPSRCELTKNQVSLSCAVKGFYPSDIAVEWESNGQPENNYKTTPPVLDSDGSFFLVSKLTVDKSRWQQGNVFSCSVMHEALHNHYTQKSLSLSP
heavy 2: B1 heavy 1 with Y234Q, S238M, D269E
light: B1 light
notes: heterodimerized anti-EREG antibody with the RGD peptide inserted in a loop region of the H240-Hl076 chain; also called H240-Kn125/H240-HI076-ma1/L73
B11: H240-G1d-CD/H240-G1d-CD/L73 (antibody, human IgG1, kappa)
heavy: B9 heavy 2 with Y233L, Q234L, W235G, M238S, D267H, E269D, A297S, C348Y, W365T
light: B1 light
notes: anti-EREG antibody with the RGD peptide inserted in the CH3 regions (control)

T3 sequence (P08637 other isoform, or with tags, fused parts or gaps): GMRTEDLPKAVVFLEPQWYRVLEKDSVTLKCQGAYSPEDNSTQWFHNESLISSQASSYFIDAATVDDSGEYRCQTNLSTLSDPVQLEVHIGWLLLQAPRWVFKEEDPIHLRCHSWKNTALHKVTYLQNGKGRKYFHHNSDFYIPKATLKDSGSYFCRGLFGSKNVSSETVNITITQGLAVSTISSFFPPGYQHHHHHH
T2 sequence (P08637 other isoform, or with tags, fused parts or gaps): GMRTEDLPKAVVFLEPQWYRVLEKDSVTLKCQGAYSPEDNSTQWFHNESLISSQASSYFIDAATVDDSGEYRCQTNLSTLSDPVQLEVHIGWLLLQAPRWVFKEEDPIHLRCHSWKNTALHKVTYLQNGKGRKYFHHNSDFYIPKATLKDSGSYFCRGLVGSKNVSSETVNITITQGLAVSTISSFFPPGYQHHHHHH

One assay addresses T1, FcγRIIIa(F) extracellular domain with C-terminal His tag (human, UniProt P08637 17-208).
T1 construct: extracellular domain; polymorphic form F158; also called FcγRIIIa F type
The experiment in a line: SPR (Biacore), captured antibody, FcγR analyte, 1:1 Langmuir fit.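 Note: surface plasmon resonance at 25 °C in HBS-EP+ running buffer, antibody captured on sensor chip, FcγR flowed over as analyte in the same buffer.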 For orientation: SPR reads the build-up and loss of mass on a sensor chip optically.
Description: (§1) The antibody of interest was analyzed for its interaction with FcγR using a BiaCore™ T100, BiaCore™ A100, or BiaCore™ 4000 surface plasmon resonance system (GE Healthcare Japan Corp.). The running buffer used was HBS-EP+ (GE Healthcare Japan Corp.). The assay temperature was set to 25° C. The sensor chips used were: a chip prepared by immobilizing antigenic peptides onto Series S Sensor Chip CM5 (GE Healthcare Japan Corp.) by the amine coupling method; a chip prepared by immobilizing antigenic peptides biotinylated in advance onto Series S Sensor Chip SA (certified) (GE Healthcare Japan Corp.) through their interaction; a chip prepared by immobilizing protein L (ACTIGEN, BioVision, Inc.) onto Series S Sensor Chip CM5 (GE Healthcare Japan Corp.); and a chip prepared by immobilizing protein A/G (Thermo Fisher Scientific K.K.) onto Series S Sensor Chip CM5 (GE Healthcare Japan Corp.). The antibody of interest was captured onto any of these chips and allowed to interact with FcγR diluted with a running buffer. The antibody captured on the chip was washed off through the reaction of 10 mM glycine-HCl (pH 1.5) to regenerate the chip, which was repetitively used.
A word on the Kd: it is the constant that tells how readily two partners part at equilibrium. B1 displayed a Kd of 660 nM.
Still for that read-out and setting: in the case of B2 it was 77 nM.

A further assay concerns the target T2, FcγRIIIa(V) extracellular domain with C-terminal His tag (human, UniProt P08637 17-208).
T2 construct: extracellular domain; polymorphic form V158; also called FcγRIIIa V type
Described as above.
Description: as §1
Take B1: the Kd worked out at 86 nM.
The same measure, in the same setting: the figure for B2 is 16 nM.

A further assay has as its target T3, FcγRIIIa extracellular domain with C-terminal His tag (allotype not given) (human, UniProt P08637 17-208).
T3 construct: extracellular domain; also called 3a
Put plainly: SPR (Biacore), captured antibody, FcγRIIIa analyte, 1:1 Langmuir fit.
The molecule B3 registered a Kd of 54 nM.
Still for that read-out and setting: the figure for B4 is 1600 nM; for B5 it is 6.2 nM.
On the same count and under the same terms, in the case of B6 it was 4.7 nM; in that of B7, 3300 nM.
On the same count and under the same terms, in the case of B8 it was 320 nM.

The target of another assay is T3, FcγRIIIa extracellular domain with …. Put plainly: SPR; KD of GpH7-G1d/GpL16-k0 for FcγRIIIa divided by KD of this antibody.
Description: as §1
On to B3, for which the “KD ratio1” value worked out at 23 fold.
Turning to B4, the “KD ratio1” value is 0.75 fold.
With B5, the “KD ratio1” value came out at 199 fold.
For B6, the “KD ratio1” value turned out to be 261 fold.
Same read-out and setting: in the case of B7 it was 0.37 fold; in that of B8, 3.8 fold.

The next assay shares this target. Put plainly: SPR; KD of GpH7-A5/GpH7-B3/GpL16-k0 for FcγRIIIa divided by KD of this antibody.
Description: as §1
Turning to B3, the “KD ratio2” value came out at 30 fold.
Still for that read-out and setting: the figure for B4 is 1 fold; for B5 it is 263 fold; for B6 it is 347 fold.
For the molecule B7, the “KD ratio2” value is 0.49 fold.
Still for that read-out and setting: in the case of B8 it was 5.1 fold.

The target of the next assay is T4, FcγRIIIa (human, UniProt P08637 17-208).
T4 construct: extracellular domain; also called 3a
The experiment in a line: SPR (Biacore T100), antibody captured on protein L chip, FcγRIIIa as analyte, TBS(+), 25 C, 1:1 Langmuir fit.
Description: Specifically, their interaction with FcγRIIIa was analyzed using BiaCore™ T100 surface plasmon resonance system (GE Healthcare Japan Corp.). The running buffer used was the TBS(+) solution used in the preceding paragraph. The assay temperature was set to 25° C. Protein L was immobilized onto Series S Sensor Chip CM4 (GE Healthcare Japan Corp.) by the amine coupling method to prepare a chip. Each antibody of interest was captured onto the protein L-immobilized chip and allowed to interact with FcγRIIIa diluted with a running buffer. The antibody captured on the chip was washed off through the reaction of 10 mM glycine-HCl (pH 1.5) to regenerate the chip, which was repetitively used.
Each antibody was evaluated for its binding activity against FcγRIIIa with binding activity against FcγRIIIa and dissociation constant for FcγRIIIa as main indexes. […] Specifically, a sensorgram obtained by assay using BiaCore™ surface plasmon resonance Evaluation Software was globally fit into the 1:1 Langmuir model to calculate an association rate constant ka (L/mol/s) and a dissociation rate constant kd (1/s). From these values, the dissociation constant KD (mol/L) was calculated.
B9 had a Kd of 0.85 nM.
On the same count and under the same terms, the figure for B10 is 2.1 nM; for B11 it is 310 nM.

The values above are taken from patent publication US20260167699A1 (Chugai, published 2026).
